# Laboratory results from the supplement of paper PMC9170038.
# Tested on: MS2 coat protein
# Assay: apparent KD of MS2 coat protein; designed switch direction (-1 OFF switch, 1 ON switch): -1; higher = weaker reporter binding
# Method in brief: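 RNA switches sharing common flanks were transcribed by stalled E. coli RNA polymerase on Illumina chips. A doubling series of SNAP-549-labelled MS2 coat protein, from 0.7 or 1.5 nM to 3 µM, was applied in Tris-HCl pH 7.5 buffer with KCl, MgCl2, BSA, DTT, tRNA and Tween-20. Each step lasted 0.8–1.5 h at the bottom of the series and 10–20 min at the top. Normalised cluster fluorescence was curve-fitted, giving apparent KD as the per-design median over clusters.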
# [1] = input ligand: microRNA oligo, concentration not stated
# [2] = Eterna round: R95, input ligand: FMN 200 uM
# [3] = Eterna round: R95, input ligand: microRNA oligo, concentration not stated
# [4] = Eterna round: R95, input ligand: none
Sequence,apparent KD of MS2 coat protein (input ligand: FMN 200 uM),apparent KD of MS2 coat protein [1],apparent KD of MS2 coat protein (input ligand: none),apparent KD of MS2 coat protein [2],apparent KD of MS2 coat protein [3],apparent KD of MS2 coat protein [4]
"CUGUUUUUCGCAGGAUAUGCUCCUCCUUUAUUUGCAGAAGGGCGUUAAACAUGAGGAUCACCCAUGUAUGGUAAUGACAUUUUC [JR_ExcNG1_Sub063] (Eterna round: R96, puzzle: Exclusion NG 1)",135 nM,20.8 nM,29.6 nM,,,
"GAUUAUGCGAGCUUUAGGGACAUGAGGAUCACCCAUGUUCGUCUUGUUGAUCUAGGUACACUGACAUACCUAAAUCU [JMF 65] (puzzle: Sensor v3, turn-off variant 1)",,,,22 nM,26.9 nM,18.3 nM
UUUUAGGCAGGAUAUACAUUUUUUUUAUUAUCCUCAUUAUUACAUGAGGAUCACCCAUGUAGAAGGGCCAUUUU [My Design] (puzzle: Exclusion 2),,,,,38.5 nM,
"AGAGUGCUGCGAGGAUAUACAUGAGGAUCACCCAUGUUAUCGUGUGAGGCUUUGCCUCACACGAAGUAGAAGGCGCAGUACUCA [Mat - Exclusion NG 2 - Mod of JL - D100] (Eterna round: R96, puzzle: Exclusion NG 2)",13.4 nM,7.69 nM,14.2 nM,,,
"AGUUGGCGAGGAUAUACAUGAGGAUCACCCAUGUGAGGGAUACUAGUGAGGUCGAUUAGUAGAAGGCGCUGACA [Mat X3R4 m9] (Eterna round: R97, puzzle: Exclusion 3)",839 nM,,56.1 nM,,,
"AGAGUGCUGCGAGGAUAUACAUGAGGAUCACCCAUGUUUUCCUGUGAGGCAUAGCCUCACAGGAUGUAGAAGGCGCAGUACUCA [Mat - Exclusion NG 2 - Mod of JL - D29] (Eterna round: R96, puzzle: Exclusion NG 2)",13.5 nM,9.44 nM,13.7 nM,,,
ACAAAGGUAGGAUAUCGGACUAUGGACAUGAGGAUCACCCAUGUGCGUCCAGUGUCCAACCGAGAAGGACCCAAAA [Beinge] (puzzle: Exclusion 5),,,,83.2 nM,86.1 nM,91.6 nM
UGGUAACAUGAGGAUCACCCAUGUCAGGAUAUCAGUAAGAAUAGAGGAGAGUAGAAGAUGAGAAGGGACUAUAU [Excluse me! 8 - Jieux - Exclusion 1] (puzzle: Exclusion 1),,,,20.5 nM,33.4 nM,30.8 nM
"UAACUUCUAGUAAGGAUAUCGGUCCCAAGGGACAACGAGAAGGUACAUGAGGAUCACCCAUGUGAAAUAAGAAU [Mod of Zala 2 - Jieux - Brourd's Mod of Exclusion 4] (Eterna round: R97, puzzle: Brourd's mod of Exclusion 4)",72.9 nM,,20.7 nM,,,
"UUUACAAGCUAUAGAUCCCACAUGAGGAUCACCCAUGUUGCUGCCAACGGUAGCUUUUUAUGGUUUGCUCGUCUUAU [JL TOV1 3.35] (Eterna round: R97, puzzle: Sensor, turn-off variant 1)",443 nM,,1860 nM,,,
"UGCGGUUGAGGAUAUACGUAGAAGUAGAUUCAUGUAAAACUACAUGAGGAUCACCCAUGUAGAAGGCAAUCGCU [Mat - Exclusion 2 - JL Mod - D40] (Eterna round: R97, puzzle: Exclusion 2)",193 nM,,21.5 nM,,,
"GGACAUUCGGUAAGGAUAUUGACCCAACCUAGGAUCAAGAAGGUACAUGAGGAUCACCCAUGUCAGAUCCGUCA [Eternabot (Original) Solution 34] (Eterna round: R97, puzzle: Brourd's mod of Exclusion 4)",27.4 nM,,16 nM,,,
AAAUCCGCUGAGGAUAUCAUGACUGAGAGGUCAUGAGAAGGCGGUACAUGAGGAUCACCCAUGUCUAUGGGCAA [Ex-6 Malc#28] (puzzle: Exclusion 6),,,,,386 nM,
CAUGUCUGAGGAUAUCGUUUUUUGUACAUGAGGAUCACCCAUGUCCUAUUUUUUAUAUUACGAGAAGGCAGUGGAU [JR_E5_Sub091] (puzzle: Exclusion 5),,,,,34.9 nM,
